Data taken from US20200325214A1 (NUMAB THERAPEUTICS, published 2020).

B1: 19-01-H04-sc02 (scFv, V domains shown)
VH: EVQLVESGGGLVQPGGSLRLSCAASGFSLSSNAMGWVRQAPGKGLEYIGIISVGGFTYYASWAKGRFTISRDNSKNTVYLQMNSLRAEDTATYFCARDRHGGDSSGAFYLWGQGTLVTVSS
VL: DIQMTQSPSSLSASVGDRVTITCQSSESVYSNNQLSWYQQKPGQPPKLLIYDASDLASGVPSRFSGSGSGTDFTLTISSLQPEDFATYYCAGGFSSSSDTAFGGGTKLTVLG
notes: also called clone 19-01-H04 STR graft; humanized scFv
B2: 23-13-A01-sc02 (scFv, V domains shown)
VH: EVQLVESGGGLVQPGGSLRLSCAASGFSFSSSYWICWVRQAPGKGLEWVGCVFTGDGTTYYASWAKGRFTISRDNSKNTVYLQMNSLRAEDTATYFCARPVSVYYYGMDLWGQGTLVTVSS
VL: DVVMTQSPSSLSASVGDRVTITCQASQIISSRSAWYQQKPGQPPKLLIYQASKLASGVPSRFSGSGSGTDFTLTISSLQPEDFATYYCQCTYIDSNFGAFGGGTKLTVLG
notes: also called clone 23-13-A01 STR graft; humanized scFv

Columns and labels:
[1] = biological target: T1, marmoset (purified) serum albumin (marmoset); experiment: SPR (MASS-1), SA amine-coupled, scFv analyte, pH 5.5
T1 construct: Amine-coupled to the SPR chip; also called marmoset SA
Procedure: (§1) Affinity of the humanized scFvs to serum albumin (SA) of the different species was determined by SPR measurements using a MASS-1 device (Sierra Sensors). SA was directly coupled to a high capacity amine sensor chip (Sierra Sensors) using amine coupling chemistry. […] The assay was run twice at different pH values: once in a 1×PBS-Tween buffer at pH 5.5 and another time in a 1×PBS-Tween buffer at pH 7.4.

cynomolgus serum albumin [2] = biological target: T2, cynomolgus serum albumin (cynomolgus, UniProt A2V9Z4 25-608); experiment: SPR; upper end tied to cynomolgus SA at pH 5.5 by the KD values of Table 3
T2 construct: Amine-coupled to the SPR chip; also called cynomolgus SA
Procedure: as §1

human serum albumin [3] = biological target: T3, human serum albumin (human, UniProt P02768 25-609); experiment: SPR; lower end tied to human SA at pH 5.5 by the KD values of Table 3
T3 construct: Amine-coupled to the SPR chip; also called HSA; human SA
Procedure: as §1

cynomolgus serum albumin [4] = biological target: T2, cynomolgus serum albumin; experiment: SPR (MASS-1), SA amine-coupled, scFv analyte, pH 5.5
Procedure: as §1

human serum albumin [5] = biological target: T3, human serum albumin; experiment: as above
Procedure: as §1

mouse serum albumin [6] = biological target: T4, mouse serum albumin (mouse, UniProt P07724 25-608); experiment: SPR, SA coupled to the chip, scFv as analyte
T4 construct: Amine-coupled to the SPR chip; also called mouse SA; rodent SA
Procedure: as §1

rat serum albumin [7] = biological target: T5, rat serum albumin (rat, UniProt P02770 25-608); experiment: SPR, SA coupled to the chip, scFv as analyte
T5 construct: Amine-coupled to the SPR chip; also called rat SA; rodent SA
Procedure: as §1

cynomolgus serum albumin [8] = biological target: T2, cynomolgus serum albumin; experiment: SPR (MASS-1), SA amine-coupled, scFv analyte, pH 7.4
Procedure: as §1

human serum albumin [9] = biological target: T3, human serum albumin; experiment: as above
Procedure: as §1

mouse serum albumin [10] = biological target: T4, mouse serum albumin; experiment: SPR (MASS-1), SA amine-coupled, scFv analyte, pH 5.5
Procedure: as §1

rat serum albumin [11] = biological target: T5, rat serum albumin; experiment: as above
Procedure: as §1

mouse serum albumin [12] = biological target: T4, mouse serum albumin; experiment: SPR (MASS-1), SA amine-coupled, scFv analyte, pH 7.4
Procedure: as §1

rat serum albumin [13] = biological target: T5, rat serum albumin; experiment: as above
Procedure: as §1

human serum albumin [14] = biological target: T3, human serum albumin; experiment: SPR; species not given, human SA taken from Table 3

Binder | Kd [1] | koff [1] | kon [1] | Kd (cynomolgus serum albumin [4]) | koff (cynomolgus serum albumin [4]) | kon (cynomolgus serum albumin [4]) | Kd (human serum albumin [5]) | koff (human serum albumin [5]) | kon (human serum albumin [5]) | Kd (cynomolgus serum albumin [8]) | koff (cynomolgus serum albumin [8]) | kon (cynomolgus serum albumin [8]) | Kd (human serum albumin [9]) | koff (human serum albumin [9]) | kon (human serum albumin [9]) | also measured
B1 | 0.674 nM | 0.0026 s⁻¹ | 3.86e+06 M⁻¹ s⁻¹ | 0.387 nM | 0.000231 s⁻¹ | 598000 M⁻¹ s⁻¹ | 0.684 nM | 0.000308 s⁻¹ | 450000 M⁻¹ s⁻¹ | 0.711 nM | 0.000302 s⁻¹ | 424000 M⁻¹ s⁻¹ | 1.07 nM | 0.000411 s⁻¹ | 384000 M⁻¹ s⁻¹ | fold improvement of affinity of the STR graft over the CDR graft 19-01-H04-sc01 (cynomolgus serum albumin [2]): 20 to 300 fold; fold improvement of affinity of the STR graft over the CDR graft 19-01-H04-sc01 (human serum albumin [3]): 20 to 300 fold; binding result (mouse serum albumin [6]): no binding; binding result (rat serum albumin [7]): no binding
B2 | 3.77 nM | 0.00128 s⁻¹ | 338000 M⁻¹ s⁻¹ | 0.75 nM | 0.000253 s⁻¹ | 338000 M⁻¹ s⁻¹ | 0.373 nM | 0.000115 s⁻¹ | 307000 M⁻¹ s⁻¹ | 1.3 nM | 0.000433 s⁻¹ | 334000 M⁻¹ s⁻¹ | 0.6 nM | 0.000194 s⁻¹ | 323000 M⁻¹ s⁻¹ | Kd (mouse serum albumin [10]): 4.86 nM; koff (mouse serum albumin [10]): 0.000933 s⁻¹; kon (mouse serum albumin [10]): 192000 M⁻¹ s⁻¹; Kd (rat serum albumin [11]): 18.7 nM; koff (rat serum albumin [11]): 0.00437 s⁻¹; kon (rat serum albumin [11]): 234000 M⁻¹ s⁻¹; Kd (mouse serum albumin [12]): 32.2 nM; koff (mouse serum albumin [12]): 0.00469 s⁻¹; kon (mouse serum albumin [12]): 146000 M⁻¹ s⁻¹; Kd (rat serum albumin [13]): 231 nM; koff (rat serum albumin [13]): 0.0245 s⁻¹; kon (rat serum albumin [13]): 106000 M⁻¹ s⁻¹; fold improvement of affinity of the STR graft over the CDR graft 23-13-A01-sc01 (human serum albumin [14]): ~3 fold
